Positions count from the first letter of the chain named. Each block holds one molecule with its values, some of them ahead of it.
Tests used:
[1] = molecular target: NtMOC1 (N108-S275, I112V/Q162K/E235Q/E239Q) (Nicotiana tabacum); experiment: crystal structure; MOC1 with 1 mM MgCl2 mixed with Holliday junction DNA (9-bp arms) at a molar ratio of 1:1.2, co-crystallised
[2] = molecular target: NtMOC1 (N108-S275, I112V/Q162K/E235Q/E239Q) (Nicotiana tabacum); experiment: crystal structure; HJ-free (apo) MOC1, 10 mg/ml with 1 mM MgCl2, sitting-drop vapor diffusion at 18 °C
NtMOC1 Y180A = molecular target: T1, NtMOC1 Y180A (Nicotiana tabacum, UniProt A0A1S4BMC2 108-275, Y180A); experiment: EMSA; 5 mM EDTA; little effect; EMSA: 50 mM Tris-HCl pH 8.0, 1 mM DTT, 5 mM EDTA, 200 ng/ml heparin (so in the source), 10% glycerol, 25 C, 30 min; HJ 250 nM, protein 0-1000 nM; 6% native PAGE, no MgCl2; conditions: protein: recombinant; tags: 6xHis N-term, removed (DrICE); chain copies: 2; label: none (GelRed stain); four-way junction of 4 strands, 28 nt each, 2-bp homologous core
T1 sequence: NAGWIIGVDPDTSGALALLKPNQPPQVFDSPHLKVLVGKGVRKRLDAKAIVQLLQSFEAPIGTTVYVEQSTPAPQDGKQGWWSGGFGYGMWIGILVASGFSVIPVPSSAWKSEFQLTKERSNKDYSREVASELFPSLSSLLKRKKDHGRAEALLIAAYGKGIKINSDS

NtMOC1 D116A = molecular target: T2, NtMOC1 D116A (Nicotiana tabacum, UniProt A0A1S4BMC2 108-275, D116A); experiment: EMSA; 5 mM EDTA; EMSA: 50 mM Tris-HCl pH 8.0, 1 mM DTT, 5 mM EDTA, 200 ng/ml heparin (so in the source), 10% glycerol, 25 C, 30 min; HJ 250 nM, protein 0-1000 nM; 6% native PAGE, no MgCl2; conditions: protein: recombinant; tags: 6xHis N-term, removed (DrICE); chain copies: 2; label: none (GelRed stain); four-way junction of 4 strands, 28 nt each, 2-bp homologous core
T2 sequence: T1 sequence with D9A, A73Y

NtMOC1 E175A = molecular target: T3, NtMOC1 E175A (Nicotiana tabacum, UniProt A0A1S4BMC2 108-275, E175A); experiment: as above; conditions: protein: recombinant; tags: 6xHis N-term, removed (DrICE); chain copies: 2; label: none (GelRed stain); four-way junction of 4 strands, 28 nt each, 2-bp homologous core
T3 sequence: T1 sequence with E68A, A73Y

NtMOC1 D253A = molecular target: T4, NtMOC1 D253A (Nicotiana tabacum, UniProt A0A1S4BMC2 108-275, D253A); experiment: as above; conditions: protein: recombinant; tags: 6xHis N-term, removed (DrICE); chain copies: 2; label: none (GelRed stain); four-way junction of 4 strands, 28 nt each, 2-bp homologous core
T4 sequence: T1 sequence with A73Y, D146A

NtMOC1 D118A = molecular target: T5, NtMOC1 D118A (Nicotiana tabacum, UniProt A0A1S4BMC2 108-275, D118A); experiment: as above; conditions: protein: recombinant; tags: 6xHis N-term, removed (DrICE); chain copies: 2; label: none (GelRed stain); four-way junction of 4 strands, 28 nt each, 2-bp homologous core
T5 sequence: T1 sequence with D11A, A73Y

NtMOC1 E258A = molecular target: T6, NtMOC1 E258A (Nicotiana tabacum, UniProt A0A1S4BMC2 108-275, E258A); experiment: as above; conditions: protein: recombinant; tags: 6xHis N-term, removed (DrICE); chain copies: 2; label: none (GelRed stain); four-way junction of 4 strands, 28 nt each, 2-bp homologous core
T6 sequence: T1 sequence with A73Y, E151A

stoichiometry N [1]: 2
stoichiometry N [2]: 2
Molecule: NtMOC1 (N108-S275, I112V/Q162K/E235Q/E239Q) (domain or fragment)

B1: X2 (CCGG) HJ (structured_DNA)
DNA 1: GGGCAAAGATGTCCCTCTGTTGTAATCG
DNA 2: CCAGTGCCTTGCTGGGACATCTTTGCCC
DNA 3: TAGACAGCTCCATCCAGCAAGGCACTGG
DNA 4: CGATTACAACAGAGGATGGAGCTGTCTA
binding result (NtMOC1 Y180A): binds
binding result (NtMOC1 D116A): binds
binding result (NtMOC1 E175A): binds
binding result (NtMOC1 D253A): binds
binding result (NtMOC1 D118A): binds
binding result (NtMOC1 E258A): binds
